First the molecules themselves.
T1: bovine pancreatic trypsin (Bos taurus, UniProt P00760)
T1 construct: purchased Worthington (Worthington Biochemical Corp.)
T1 sequence (P00760 24-246): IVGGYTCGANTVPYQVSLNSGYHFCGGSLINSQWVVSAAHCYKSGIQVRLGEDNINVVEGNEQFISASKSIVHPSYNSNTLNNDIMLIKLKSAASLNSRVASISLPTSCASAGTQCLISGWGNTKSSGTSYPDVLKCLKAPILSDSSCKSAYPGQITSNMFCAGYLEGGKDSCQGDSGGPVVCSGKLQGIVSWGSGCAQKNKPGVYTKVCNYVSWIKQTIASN

B1: BBIt-AV-4D13 insert -A13I-L29P-A40K-F50T-V52A: modified variant BBPI, SEQ ID NO:413 (protein)
chain: DPDDEPSKPCCDPDPDDESSKPCCDQCICTKSNPPQCRCSDMRPNSCHSACKSCKCYNLYGWTCTCADITDFCYEPCKPSE
modifications: synthetic BBPI sequence
B2: BBIt-AV-A13I-L29P-S31A-A40K-F50T-V52A: modified variant BBPI, SEQ ID NO:621 (protein)
chain: DPDDESSKPCCDQCICTKSNPPQCRCSDMRPNACHSACKSCKCYNLYGWTCTCADITDFCYEPCKPSE
modifications: synthetic BBPI variant
B3: BBIt-AV-S4V-A13I-L29P-A40K-F50T-V52A: modified variant BBPI, SEQ ID NO:612 (protein)
chain: DPDDEVSKPCCDQCICTKSNPPQCRCSDMRPNSCHSACKSCKCYNLYGWTCTCADITDFCYEPCKPSE
modifications: synthetic BBPI variant
B4: BBIt-AV-Q11G-A13I-L29P-A40K-F50T-V52A: modified variant BBPI, SEQ ID NO:614 (protein)
chain: DPDDESSKPCCDGCICTKSNPPQCRCSDMRPNSCHSACKSCKCYNLYGWTCTCADITDFCYEPCKPSE
modifications: synthetic BBPI variant
B5: BBIt-AV-A13I-L29P-A40K-F50K-V52A: modified variant BBPI, SEQ ID NO:624 (protein)
chain: DPDDESSKPCCDQCICTKSNPPQCRCSDMRPNSCHSACKSCKCYNLYGWTCKCADITDFCYEPCKPSE
modifications: synthetic BBPI variant
B6: BBIt-AV-A13I-L29P-A40K-F50T-V52T: modified variant BBPI, SEQ ID NO:625 (protein)
chain: DPDDESSKPCCDQCICTKSNPPQCRCSDMRPNSCHSACKSCKCYNLYGWTCTCTDITDFCYEPCKPSE
modifications: synthetic BBPI variant
B7: BBIt-AV-A13I-S25R-L29P-S31A-A40K-F50T-V52A: modified variant BBPI, SEQ ID NO:617 (protein)
chain: DPDDESSKPCCDQCICTKSNPPQCRCRDMRPNACHSACKSCKCYNLYGWTCTCADITDFCYEPCKPSE
modifications: synthetic BBPI variant
B8: BBIt-AV-S5P-A13I-L29P-A40K-F50T-V52A: modified variant BBPI, SEQ ID NO:613 (protein)
chain: DPDDESPKPCCDQCICTKSNPPQCRCSDMRPNSCHSACKSCKCYNLYGWTCTCADITDFCYEPCKPSE
modifications: synthetic BBPI variant
B9: BBIt-AV-A13I-L29K-A40K-F50T-V52A: modified variant BBPI, SEQ ID NO:620 (protein)
chain: DPDDESSKPCCDQCICTKSNPPQCRCSDMRKNSCHSACKSCKCYNLYGWTCTCADITDFCYEPCKPSE
modifications: synthetic BBPI variant
B10: BBIt-AV-A13L-L29P-A40K-F50T-V52A: modified variant BBPI, SEQ ID NO:615 (protein)
chain: DPDDESSKPCCDQCLCTKSNPPQCRCSDMRPNSCHSACKSCKCYNLYGWTCTCADITDFCYEPCKPSE
modifications: synthetic BBPI variant
B11: BBIt-AV-A13I-S25R-L29P-S31R-A40K-F50T-V52A: modified variant BBPI, SEQ ID NO:618 (protein)
chain: DPDDESSKPCCDQCICTKSNPPQCRCRDMRPNRCHSACKSCKCYNLYGWTCTCADITDFCYEPCKPSE
modifications: synthetic BBPI variant
B12: BBIt-AV-A13I-L29P-S31R-A40K-F50T-V52A: modified variant BBPI, SEQ ID NO:622 (protein)
chain: DPDDESSKPCCDQCICTKSNPPQCRCSDMRPNRCHSACKSCKCYNLYGWTCTCADITDFCYEPCKPSE
modifications: synthetic BBPI variant
B13: BBIt-AV-A13I-S25R-L29P-A40K-F50T-V52A: modified variant BBPI, SEQ ID NO:616 (protein)
chain: DPDDESSKPCCDQCICTKSNPPQCRCRDMRPNSCHSACKSCKCYNLYGWTCTCADITDFCYEPCKPSE
modifications: synthetic BBPI variant
B14: BBIdb-AV: BBdb with CK37281 replacing the second protease inhibitory loop, SEQ ID NO:452 (protein)
chain: DPSESSKPCCDQCACTKSIPPQCRCTDVRLNSCHSACSSCACYNLYGWTCVCVDMKDFCYEPCK
modifications: synthetic BBdb-AV sequence
B15: BBItc-AV: BBtc with CK37281 replacing the second protease inhibitory loop, SEQ ID NO:454 (protein)
chain: DPSSKWEACCDRCACTKSIPPQCHCADIRLNSCHSACESCACYNLYGWTCRCFDITDFCYKPCSG
modifications: synthetic BBtc-AV sequence
B16: BBIsb3-AV: BBsb3 with CK37281 replacing the second protease inhibitory loop, SEQ ID NO:453 (protein)
chain: DPDDEYSKPCCDLCMCTRSMPPQCSCEDIRLNSCHSDCKSCACYNLYGWTCRCLDTNDFCYKPCKSRDD
modifications: synthetic BBsb3-AV sequence

One assay deals with T1, bovine pancreatic trypsin. Put plainly: Shake flask screen: trypsin inhibition after growth, 2-mercaptoethanol activation and acid/heat treatment. It counts as biochemical.
Settings: not given
On the procedure:
To increase expression, the gene copy of the selected clones was amplified by sequentially streaking colonies on Luria agar plates with 25 μg/ml chloramphenicol until the growth rate was similar to growth on Luria agar plates without chloramphenicol. Cultures of the selected variants and controls were grown in 3 ml Luria broth with 25 μg/ml chloramphenicol in 15 ml tubes for ˜10 h. These cultures (30 μl) were then used to inoculate 30 ml of MBD medium in 250 ml baffled shake flasks and grown at 37° C. and 225 rpm for ˜60 h.
For selection of the variants with the best yields, the culture broths were processed as follows. The broth was first activated by mixing 20 ml of broth with 20 ml of 0.25 M glycine buffer (pH 9.3) and the pH was adjusted to 9.0 with 50% NaOH. Then, 2-mercaptoethanol was added to the diluted cultures to a final concentration of 2 mM and the cultures were incubated overnight at room temperature with gentle shaking. The BBIt-AV moiety was then cleaved from the fusion protein by acid/heat treatment, which was accomplished by first adjusting the pH of the activated broth to pH 1.9-2.0 with sulfuric acid, and followed by incubation at 60° C. for 16 hours, with shaking. The BBIt-AV-BCE fusion protein and the BCE catalytic domain are not soluble at pH 2, whereas the free BBI species is soluble. After the cleavage reaction, the insoluble material was removed by centrifugation (5 min. at 3,000 rpm) and the supernatant was analyzed for trypsin inhibitory activity as described above. The BBI activity was also determined for the starting material and for the samples taken after activation. The BCE activity of the starting material was also determined as described above. The BBIt-AV:BCE activity ratios were then calculated for each step in process. The modified BBIt-AVs produced at the highest yields following the acid/heat treatment were selected for further study.
On to B1, for which the “yield after acid/heat treatment relative to BBIt-AV-A13I-L29P-A40K-F50T-V52A (SEQ ID NO:601)” value is reported as “slightly better yields”.
Same read-out and setting: in the case of B2 it was “somewhat less”; in that of B3, “significantly lower yields”; in that of B4, “significantly lower yields”.
On the same count and under the same terms, in the case of B5 it was “slightly better yields”; in that of B6, “somewhat less”; in that of B7, “significantly better yields”.
On to B8, for which the “yield after acid/heat treatment relative to BBIt-AV-A13I-L29P-A40K-F50T-V52A (SEQ ID NO:601)” value was “significantly lower yields”.
On the same count and under the same terms, in the case of B9 it was “significantly lower yields”; in that of B10, “slightly better yields”.
Turning to B11, the “yield after acid/heat treatment relative to BBIt-AV-A13I-L29P-A40K-F50T-V52A (SEQ ID NO:601)” value is listed as “significantly better yields”.
With B12, the “yield after acid/heat treatment relative to BBIt-AV-A13I-L29P-A40K-F50T-V52A (SEQ ID NO:601)” value was “significantly better yields”.
On the same count and under the same terms, under B13 stands “significantly better yields”.

Staying with this assay, now noted: alternative scaffolds.
As to B14, the “inhibitory activities after acid/heat treatment relative to BBIt-AV” value is reported as “higher inhibitory activities after acid/heat treatment”.
Still for that read-out and setting: under B15 stands “higher inhibitory activities after acid/heat treatment”.
For B16, the “activation with reducing agent” value is “did not activate with reducing agent”.

The assay is the same for the next values; noted with them: alternative scaffolds compared with BBIt-AV.
For B14, the “trypsin inhibitory activity after activation” value is listed as “greater than that of the BBIt-AV inhibitor but less than that of the BBItc-AV inhibitor”.
The same measure, in the same setting: in the case of B15 it was “highest trypsin inhibitory activity after activation”; in that of B16, “very low trypsin inhibitory activity”.

The values are drawn from patent US7772181B2, “Personal care compositions comprising modified variant Bowman Birk Protease Inhibitors” (Danisco US Inc., priority 2008, dated 2010).
